Patent publication US20240116985A1, “STAPLED PEPTIDES AND METHODS THEREOF” (priority 2020, published 2024)
Starred links: 1 amine or outer side, 2 acyl side, 3 side chain; linkers in the order of their positions; H or OH if unused. Positions of bridges follow the written chain, without caps; N, C: chain ends. Non-standard residues stand in square brackets, D forms with d. Primed or numbered codes have the meaning given here. PyrS2″ = (S)-3-amino-1-((pent-4-en-1-yloxy)carbonyl)pyrrolidine-3-carboxylic acid (stapling residue), C=CCCCOC(=O)N1CC[C@@](N[*:1])(C(=O)[*:2])C1; B5(4) = 2,2-bis(4-pentenyl)glycine = 2-amino-2-(pent-4-en-1-yl)hept-6-enoic acid (stitching residue), C=CCCCC(CCCC=C)(N[*:1])C(=O)[*:2]; B5(5) = 2,2-bis(4-pentenyl)glycine, 2-amino-2-(pent-4-en-1-yl)hept-6-enoic acid (stitching residue), C=CCCCC(CCCC=C)(N[*:1])C(=O)[*:2]; 5F3Me3COOHF = (S)-3-(2-amino-2-carboxyethyl)-5-(trifluoromethyl)benzoic acid, O=C([C@H](Cc1cc(C(=O)[*:3])cc(C(F)(F)F)c1)N[*:1])[*:2]; TfeGA = (S)-2-amino-3-((carboxymethyl)(2,2,2-trifluoroethyl)amino)propanoic acid, O=C([C@H](CN(CC(=O)[*:3])CC(F)(F)F)N[*:1])[*:2]; PyrS2 = (S)-3-amino-1-((pent-4-en-1-yloxy)carbonyl)pyrrolidine-3-carboxylic acid, C=CCCCOC(=O)N1CC[C@@](N[*:1])(C(=O)[*:2])C1; 4F3COOHF = (S)-5-(2-amino-2-carboxyethyl)-2-fluorobenzoic acid, O=C([C@H](Cc1ccc(F)c(C(=O)[*:3])c1)N[*:1])[*:2]; PyrS2(5) = (S)-3-amino-1-((alkenyloxy)carbonyl)pyrrolidine-3-carboxylic acid, carbamate stapling residue; (CyPr)‑3SF = (S)-2-amino-3-(3-cyclopropylphenyl)propanoic acid, O=C([C@H](Cc1cccc(C2CC2)c1)N[*:1])[*:2]; B5(3) = 2,2-bis(4-pentenyl)glycine (stitching residue), C=CCCCC(CCCC=C)(N[*:1])C(=O)[*:2]; B5 = 2-amino-2-(pent-4-en-1-yl)hept-6-enoic acid, C=CCCCC(CCCC=C)(N[*:1])C(=O)[*:2]; Phe(3-Ph) = N[C@@H](Cc1cccc(-c2ccccc2)c1)C(=O)O; Phe(3-COOH) = N[C@@H](Cc1cccc(C(=O)O)c1)C(=O)O; 2F3MeF = Cc1cccc(C[C@H](N[*:1])C(=O)[*:2])c1F; Phe(2-Cl) = N[C@@H](Cc1ccccc1Cl)C(=O)O; Bta = N[C@@H](Cc1csc2ccccc12)C(=O)O; αAllylPro = C=CC[C@@]1(C(=O)O)CCCN1; tBuAla = CC(C)(C)C[C@H](N)C(=O)O; 3Thi = N[C@@H](Cc1ccsc1)C(=O)O; 34ClF = not defined here; Nle = CCCC[C@H](N)C(=O)O; Aib = CC(C)(N)C(=O)O

target: Bcat-Halo (beta-catenin HaloTag construct expressed in HEK293 cells) (UniProt P35222); experiment: NanoBRET target engagement in HEK293 cells, absolute IC50; competitor TCF4-Luc
Sequence (P35222 whole entry): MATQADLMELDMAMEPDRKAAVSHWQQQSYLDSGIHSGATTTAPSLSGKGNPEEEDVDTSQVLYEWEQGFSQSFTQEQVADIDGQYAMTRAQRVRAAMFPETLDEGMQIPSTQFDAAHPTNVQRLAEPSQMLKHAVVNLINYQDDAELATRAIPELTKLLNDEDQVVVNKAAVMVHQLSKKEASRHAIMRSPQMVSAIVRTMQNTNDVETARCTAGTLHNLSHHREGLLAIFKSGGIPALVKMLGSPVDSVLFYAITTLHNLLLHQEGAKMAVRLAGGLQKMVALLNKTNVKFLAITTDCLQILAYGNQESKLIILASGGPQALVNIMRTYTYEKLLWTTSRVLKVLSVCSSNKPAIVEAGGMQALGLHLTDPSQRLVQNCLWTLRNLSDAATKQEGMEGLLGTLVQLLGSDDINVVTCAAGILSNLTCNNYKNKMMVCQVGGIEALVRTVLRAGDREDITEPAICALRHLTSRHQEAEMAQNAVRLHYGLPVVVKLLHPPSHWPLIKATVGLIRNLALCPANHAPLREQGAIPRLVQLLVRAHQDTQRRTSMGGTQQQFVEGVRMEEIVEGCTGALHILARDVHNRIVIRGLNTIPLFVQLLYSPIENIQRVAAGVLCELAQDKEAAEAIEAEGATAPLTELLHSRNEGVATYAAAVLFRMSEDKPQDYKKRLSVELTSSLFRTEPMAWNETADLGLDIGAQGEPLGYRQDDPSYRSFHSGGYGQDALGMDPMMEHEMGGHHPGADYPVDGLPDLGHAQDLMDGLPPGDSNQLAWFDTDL

Point of comparison: Ac-[αAllylPro]D[tBuAla][B5(4)]D[Phe(3-COOH)]AGFL[PyrS2(5)][Phe(2-Cl)][Bta]Q-NH2 (staple 1-4, 4-11) [I-1687], IC50 18.6 µM. Against it:
- Ac-[αAllylPro]D[tBuAla][B5]D[Phe(3-COOH)][Nle]GFL[PyrS2][Phe(2-Cl)][Bta]Q-NH2 (staple 1-4, 4-11) [I-1688] — within 1.5-fold, 21.5 µM
- Ac-[αAllylPro]D[tBuAla][B5]D[Phe(3-COOH)][Aib]GFL[PyrS2][Phe(2-Cl)][Bta]Q-NH2 (staple 1-4, 4-11) [I-1689] — within 1.5-fold, 12.5 µM
- Ac-[αAllylPro]D[tBuAla][B5]D[TfeGA][Nle]AFT[PyrS2][Phe(2-Cl)][Bta]Q-NH2 (staple 1-4, 4-11) [I-1692] — 1.8-fold lower, 10.4 µM
- Ac-[αAllylPro]D[tBuAla][B5]D[TfeGA][Aib]AFT[PyrS2][Phe(2-Cl)][Bta]Q-NH2 (staple 1-4, 4-11) [I-1693] — 4-fold lower, 4.6 µM
- Ac-[αAllylPro]D[tBuAla][B5]D[TfeGA]AGFT[PyrS2][Phe(2-Cl)][Bta]Q-NH2 (staple 1-4, 4-11) [I-1694] — 2.3-fold higher, 43.6 µM
- Ac-[αAllylPro]D[tBuAla][B5]D[TfeGA][Nle]GFT[PyrS2][Phe(2-Cl)][Bta]Q-NH2 (staple 1-4, 4-11) [I-1695] — higher, > 20 µM
- Ac-[αAllylPro]D[tBuAla][B5]D[TfeGA][Aib]GFT[PyrS2][Phe(2-Cl)][Bta]Q-NH2 (staple 1-4, 4-11) [I-1696] — 1.9-fold higher, 35.5 µM

target: full-length beta-Catenin (Uniprot ID P35222) (Homo sapiens (Human)) (UniProt P35222); experiment: fluorescence polarization competition against 5FAM-TCF4 10-53
Sequence (P35222 whole entry, one chain of several): as the sequence (P35222 whole entry) above

Point of comparison: Ac-[αAllylPro]D[tBuAla][B5(5)]D[4F3COOHF]QAFL[PyrS2][3Thi][Bta]A-NH2 (staple 1-4, 4-11) [I-2206], IC50 7 nM. Against it:
- Ac-[αAllylPro]D[tBuAla][B5(5)]D[5F3Me3COOHF]QAFL[PyrS2][3Thi][Bta]A-NH2 (staple 1-4, 4-11) [I-2211] — 3.3-fold higher, 23 nM
- Ac-[αAllylPro]D[tBuAla][B5(3)]D[Phe(3-COOH)]AAFL[PyrS2″][Phe(3-Ph)]FQ-NH2 (staple 1-4, 4-11) [I-2214] — 270-fold higher, 1860 nM
- Ac-[αAllylPro]D[tBuAla][B5(3)]D[Phe(3-COOH)]AAFL[PyrS2″][(CyPr)‑3SF]FQ-NH2 (staple 1-4, 4-11) [I-2215] — 220-fold higher, 1540 nM
- Ac-[αAllylPro]D[tBuAla][B5(3)]D[Phe(3-COOH)]AAFL[PyrS2″][3Thi][34ClF]Q-NH2 (staple 1-4, 4-11; reading uncertain) [I-2216] — the same, 7 nM
- Ac-[αAllylPro]D[tBuAla][B5(3)]D[Phe(3-COOH)]AAFL[PyrS2″][2F3MeF][34ClF]S-NH2 (staple 1-4, 4-11; reading uncertain) [I-2218] — 4.9-fold higher, 34 nM
- Ac-[αAllylPro]D[tBuAla][B5(3)]D[Phe(3-COOH)]QAFL[PyrS2″][2F3MeF][34ClF]A-NH2 (staple 1-4, 4-11; reading uncertain) [I-2219] — 3-fold higher, 21 nM

target: Bcat-Halo (UniProt P35222); experiment: NanoBRET Abs IC50, Bcat-Halo/TCF4-Luc in HEK293 cells
Sequence (P35222 whole entry): as above

Point of comparison: Ac-[αAllylPro]D[tBuAla][B5(3)]D[Phe(3-COOH)]AAFL[PyrS2″][2F3MeF][34ClF]S-NH2 (staple 1-4, 4-11; reading uncertain) [I-2218], IC50 5.1 µM. Against it:
- Ac-[αAllylPro]D[tBuAla][B5(5)]D[4F3COOHF]QAFL[PyrS2][3Thi][Bta]A-NH2 (staple 1-4, 4-11) [I-2206] — within 1.5-fold, 7.1 µM
- Ac-[αAllylPro]D[tBuAla][B5(5)]D[5F3Me3COOHF]QAFL[PyrS2][3Thi][Bta]A-NH2 (staple 1-4, 4-11) [I-2211] — 2.5-fold higher, 12.9 µM
- Ac-[αAllylPro]D[tBuAla][B5(3)]D[Phe(3-COOH)]AAFL[PyrS2″][3Thi][34ClF]Q-NH2 (staple 1-4, 4-11; reading uncertain) [I-2216] — 1.5-fold lower, 3.4 µM
- Ac-[αAllylPro]D[tBuAla][B5(3)]D[Phe(3-COOH)]QAFL[PyrS2″][2F3MeF][34ClF]A-NH2 (staple 1-4, 4-11; reading uncertain) [I-2219] — 1.9-fold lower, 2.7 µM

target: full-length beta-Catenin (Uniprot ID P35222) (Homo sapiens (Human)) (UniProt P35222); experiment: fluorescence polarization competition; competitor 5FAM-TCF4 10-53

Point of comparison: Ac-[αAllylPro]D[tBuAla][B5]D[TfeGA][Aib]AFT[PyrS2][Phe(2-Cl)][Bta]Q-NH2 (staple 1-4, 4-11) [I-1693], IC50 10 nM. Against it:
- Ac-[αAllylPro]D[tBuAla][B5(4)]D[Phe(3-COOH)]AGFL[PyrS2(5)][Phe(2-Cl)][Bta]Q-NH2 (staple 1-4, 4-11) [I-1687] — 4.2-fold higher, 42 nM
- Ac-[αAllylPro]D[tBuAla][B5]D[Phe(3-COOH)][Nle]GFL[PyrS2][Phe(2-Cl)][Bta]Q-NH2 (staple 1-4, 4-11) [I-1688] — 5.9-fold higher, 59 nM
- Ac-[αAllylPro]D[tBuAla][B5]D[Phe(3-COOH)][Aib]GFL[PyrS2][Phe(2-Cl)][Bta]Q-NH2 (staple 1-4, 4-11) [I-1689] — 2.5-fold higher, 25.5 nM
- Ac-[αAllylPro]D[tBuAla][B5]D[TfeGA][Nle]AFT[PyrS2][Phe(2-Cl)][Bta]Q-NH2 (staple 1-4, 4-11) [I-1692] — 1.7-fold higher, 17 nM
- Ac-[αAllylPro]D[tBuAla][B5]D[TfeGA]AGFT[PyrS2][Phe(2-Cl)][Bta]Q-NH2 (staple 1-4, 4-11) [I-1694] — 5.7-fold higher, 57 nM
- Ac-[αAllylPro]D[tBuAla][B5]D[TfeGA][Nle]GFT[PyrS2][Phe(2-Cl)][Bta]Q-NH2 (staple 1-4, 4-11) [I-1695] — 9.3-fold higher, 93 nM
- Ac-[αAllylPro]D[tBuAla][B5]D[TfeGA][Aib]GFT[PyrS2][Phe(2-Cl)][Bta]Q-NH2 (staple 1-4, 4-11) [I-1696] — 3.2-fold higher, 32 nM
